Test results taken from patent US11510965B2, “Vesicles comprising epidermal growth factor and compositions thereof” (Centro de Ingeniería Genética y Biotecnología, priority 2012, dated 2022).

System: acute lung injury induced by LPS-zymosan
Assay: Lethal model of acute lung injury (ALI) / ARDS in rats (LPS-zymosan)
Type: in vivo, Sprague Dawley rats
Protocol: Male Sprague Dawley rats with body weight between 250 and 280 grams were used. Lung injury was induced under general anesthesia (ketamine/xylazine) by intratracheal instillation of a combination of lipopolysaccharide (LPS)-zymosan. Immediately afterwards, the animals were randomly assigned to three experimental groups of 12 animals each.
The animals were allowed to evolve without any treatment until the onset of the first symptoms.
Therefore, treatments were begun approximately 8 hours after the toxins were instilled. The experiment was aimed at evaluating the effect of treatment with both EGF formulations solely on the acute phase of ARDS. The treatments were performed by orofacial mask adapted from a volatile anesthesia machine. Treatments were performed twice daily. The animals were also treated once a day with hydrocortisone acetate (10 mg/kg) as coadjuvant treatment.
After 72 hours of treatment onset, the study was stopped. Surviving animals were anesthetized and subjected to deep bronchoalveolar lavage in 5 ml of sterile saline for cytological and biochemical study, as well as arterial blood sampling for determination of blood gas parameters. Then the lungs were insufflated with 10 ml of 10% neutral formalin and processed for histology.

[1] = arterial blood, survivors at 72 hours
[2] = bronchoalveolar lavage, survivors at 72 hours

B1: EGF in physiological saline: spray of EGF (Epidermal Growth Factor) in physiological saline at 25 μg/ml/kg (protein, UniProt P01133 23-1207, looked up)
Pro-epidermal growth factor: PQHWSCPEGTLAGNGNSTCVGPAPFLIFSHGNSIFRIDTEGTNYEQLVVDAGVSVIMDFHYNEKRIYWVDLERQLLQRVFLNGSRQERVCNIEKNVSGMAINWINEEVIWSNQQEGIITVTDMKGNNSHILLSALKYPANVAVDPVERFIFWSSEVAGSLYRADLDGVGVKALLETSEKITAVSLDVLDKRLFWIQYNREGSNSLICSCDYDGGSVHISKHPTQHNLFAMSLFGDRIFYSTWKMKTIWIANKHTGKDMVRINLHSSFVPLGELKVVHPLAQPKAEDDTWEPEQKLCKLRKGNCSSTVCGQDLQSHLCMCAEGYALSRDRKYCEDVNECAFWNHGCTLGCKNTPGSYYCTCPVGFVLLPDGKRCHQLVSCPRNVSECSHDCVLTSEGPLCFCPEGSVLERDGKTCSGCSSPDNGGCSQLCVPLSPVSWECDCFPGYDLQLDEKSCAASGPQPFLLFANSQDIRHMHFDGTDYGTLLSQQMGMVYALDHDPVENKIYFAHTALKWIERANMDGSQRERLIEEGVDVPEGLAVDWIGRRFYWTDRGKSLIGRSDLNGKRSKIITKENISQPRGIAVHPMAKRLFWTDTGINPRIESSSLQGLGRLVIASSDLIWPSGITIDFLTDKLYWCDAKQSVIEMANLDGSKRRRLTQNDVGHPFAVAVFEDYVWFSDWAMPSVMRVNKRTGKDRVRLQGSMLKPSSLVVVHPLAKPGADPCLYQNGGCEHICKKRLGTAWCSCREGFMKASDGKTCLALDGHQLLAGGEVDLKNQVTPLDILSKTRVSEDNITESQHMLVAEIMVSDQDDCAPVGCSMYARCISEGEDATCQCLKGFAGDGKLCSDIDECEMGVPVCPPASSKCINTEGGYVCRCSEGYQGDGIHCLDIDECQLGEHSCGENASCTNTEGGYTCMCAGRLSEPGLICPDSTPPPHLREDDHHYSVRNSDSECPLSHDGYCLHDGVCMYIEALDKYACNCVVGYIGERCQYRDLKWWELRHAGHGQQQKVIVVAVCVVVLVMLLLLSLWGAHYYRTQKLLSKNPKNPYEESSRDVRSRRPADTEDGMSSCPQPWFVVIKEHQDLKNGGQPVAGEDGQAADGSMQPTSWRQEPQLCGMGTEQGCWIPVSSDKGSCPQVMERSFHMPSYGTQTLEGGVEKPHSLLSANPLWQQRALDPPHQMELTQ
modifications: Pro-epidermal growth factor
notes: spray of EGF (Epidermal Growth Factor) in physiological saline at 25 μg/ml/kg
With B1 the Death total (12 animals per group, 72 hours) was 5, the “Death total (percent)” value (12 animals per group, 72 hours) was “(41.6%)” and the “Mortality (deaths) 48 hours” value (12 animals per group, EGF 25 μg/ml, orofacial mask twice daily) was 5. For the same molecule, the “Arterial pH” value [1] was 7.12 ± 0.1, the Arterial saturation [1] was 76 ± 8.3 and the “Inflammatory cells per ml” value [2] was 2.2 × 10^3. The “Red blood cells per ml” value [2] was 5.0 × 10^2 and the “Total phospholipids per g of lung tissue” value [2] was 0.000241 g.
